Assays:
[1] = system: motifs from the CHD4 promoter and enhancer sites; assay: EMSA with COS-7 nuclear extracts and radiolabeled probes; assay type: binding, human; conditions: COS nuclear extracts, FLAG-tagged constructs, radiolabeled CHD4 motif probes
Experimental: Nuclear extracts were prepared from COS-7 cells transiently transfected with ZNF410 full-length and ZNF410 ZF1-5 plasmids. FuGENE® 6 (Promega) was used to transfect 5 μg of vector into 100 mm plates of COS-7 cells. A pcDNA3 empty vector was used as control. Cells were harvested 48 hours after transfection and nuclear extracts prepared (Andrews, et al. (1991) Nucleic Acids Res., 19:2499).
EMSAs were performed (Crossley, et al. (1996) Mol. Cell Biol., 16:1695-1705). The sense oligonucleotide was labelled with [γ-^32P]-adenosine triphosphate (Perkin Elmer) and boiled at 100° C. for 1 minute before addition of the antisense oligonucleotide and annealing of probe via slow cooling from 100° C. to room temperature. Probes were purified using Quick Spin Columns for radio-labelled DNA Purification (Roche). Nuclear extracts were harvested from COS-7 cells and samples and loaded on a 6% native polyacrylamide gel in TBE buffer (45 mM Tris, 45 mM boric acid, 1 mM EDTA). A ‘COS empty’ control lane was included to show binding of any background endogenous protein to the probe. […] Gels were run at 250 V for 1 hour, 45 minutes at 4° C. then dried under vacuum. […]
ZNF410 contains five tandem C2H2-type zinc fingers (ZFs) potentially involved in DNA binding (FIG. 5A). […] Direct DNA binding by full length (FL) ZNF410 to sequences found at the CHD4 gene was assessed by electrophoretic mobility shift assays (EMSAs). […]

endogenous ZNF410 = molecular target: T1, endogenous ZNF410 (Homo sapiens, UniProt Q86VK4); assay: RT-qPCR in HUDEP-2 cells overexpressing HA-tagged ZNF410 constructs; assay type: cell-based
T1 construct: endogenous in cells; host or cells: HUDEP-2 (HUDEP-2-Cas9) cells, differentiated
T1 sequence (Q86VK4 1-478): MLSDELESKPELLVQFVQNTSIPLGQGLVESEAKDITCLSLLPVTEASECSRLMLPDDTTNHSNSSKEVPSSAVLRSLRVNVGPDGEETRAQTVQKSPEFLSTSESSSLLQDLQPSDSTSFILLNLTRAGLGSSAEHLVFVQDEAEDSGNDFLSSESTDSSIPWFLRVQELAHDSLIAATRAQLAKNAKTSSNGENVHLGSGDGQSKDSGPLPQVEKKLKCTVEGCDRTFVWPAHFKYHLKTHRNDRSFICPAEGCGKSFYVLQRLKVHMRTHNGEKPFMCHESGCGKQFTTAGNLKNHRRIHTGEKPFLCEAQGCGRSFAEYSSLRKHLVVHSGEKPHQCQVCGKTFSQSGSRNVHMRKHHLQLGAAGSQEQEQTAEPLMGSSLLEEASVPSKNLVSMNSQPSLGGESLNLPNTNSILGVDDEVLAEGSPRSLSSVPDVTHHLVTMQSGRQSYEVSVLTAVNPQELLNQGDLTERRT
Experimental: HUDEP-2 cells were cultured and differentiated as described (Kurita, et al. (2013) PLoS One 8:e59890). Briefly, StemSpan™ Serum-Free Expansion Medium (SFEM) supplemented with 50 ng/ml human stem cell factor (SCF), 10 μM dexamethasone, 1 μg/ml doxycycline, 3 IU/ml erythropoietin and 1% penicillin/streptomycin was utilized for routine cell maintenance. Cell density was kept at 0.1-1×10^6/ml. HUDEP-2 cells were differentiated for 6-7 days in IMDM supplemented with 50 ng/ml human SCF, 3 IU/ml erythropoietin, 2.5% fetal bovine serum, 250 μg/ml holo-transferrin, 10 ng/ml heparin, 10 μg/ml insulin, 1 μg/ml doxycycline and 1% penicillin/streptomycin.
SgRNAs were cloned into a lentiviral U6-sgRNA-EFS-GFP/mCherry expression vector (LRG, Addgene: #65656) by BsmBI digestion. The ZNF410 cDNA (clone ID: OHu10535), CHD4 cDNA (clone ID: OHu28780) were purchased from GenScript and were sub-cloned into a lentiviral vector pSDM101-IRES-GFP. ZNF410 variants were sub-cloned into pSDM101-IRES-GFP vector. The N-terminal HA tag was introduced by PCR. For EMSA, the ZNF410 full length or different ZF versions were sub-cloned into mammalian expression vector pcDNA3.
Lentivirus was produced as described (Grevet, et al. (2018) Science 361:285-290). Briefly, 10-20 μg of expression vectors, 5-10 μg of pVSVG (pMD2.G) and 7.5-15 μg of psPAX2 package plasmids, and 80 μl of 1 mg/ml polyethylenimine (PEI) were mixed, incubated for 15-20 minutes, and added to HEK293T cells grown in 10 cm plates to above 90% confluence. Media were replaced 6-8 hours post transfection, virus was collected 24 hours and 48 hours post-transfection and pooled. For infection, virus-containing supernatant was mixed with the indicated cell lines with 8 μg/ml polybrene and 10 mM HEPES, and then spun at 2250 rpm for 1.5 hours at room temperature. Infected HUDEP-2 cells were selected for mCherry+ or GFP+ cell sorting at 48 hours post-infection.
Total RNA was purified using the RNeasy® Plus Mini Kit (Qiagen), including an on-column DNAse treatment using RNase-free DNase set (Qiagen) to remove genomic DNA. Reverse transcription was accomplished using iScript™ Supermix (Bio-Rad). qPCR reactions were prepared with Power SYBR® Green (ThermoFisher Scientific). Quantification was performed using the ΔΔCT method.
Overexpression of ZF1-5 but not ZF2-4 should compete with endogenous ZNF410 for chromatin binding, thus acting in a dominant-negative manner. To test this hypothesis, a construct containing HA-tagged ZF1-5 or ZF2-4 driven by the EF1α promoter was introduced via lentiviral infection into HUDEP-2 cells. As control, the expression of full-length HA-tagged ZNF410 was forced. […] Moreover, full-length HA-ZNF410 when overexpressed to similar levels to HA-ZF1-5 also produced similar binding patterns (FIG. 4A). […] Thus, the ZF region is sufficient for chromatin occupancy but insufficient for CHD4 gene activation. […] Finally, the impact of ZNF410 expression on γ-globin levels was also measured.

[2] = molecular target: T2, ZNF410 ZF1-5 (GST fusion) (Homo sapiens, UniProt Q86VK4 SEQ:217-366); assay: FP; no measurable binding up to 2.5 uM; shares 7/17 bp with consensus; conditions: tags: GST N-terminal (pGEX-6P-1, pXC2180); label: FAM 5' (top strand)
T2 sequence: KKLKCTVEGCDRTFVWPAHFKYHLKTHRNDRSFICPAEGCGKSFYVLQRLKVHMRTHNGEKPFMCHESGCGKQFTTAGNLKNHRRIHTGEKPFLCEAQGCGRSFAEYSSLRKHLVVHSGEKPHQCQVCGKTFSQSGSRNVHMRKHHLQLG
Experimental: To further gain insight into the molecular basis of how the ZNF410 tandem ZF domain recognizes its targeting DNA sequence, crystallization of the ZNF410-DNA complex was performed. The binding affinity of the ZNF410 ZF domain (ZF1-5) with the consensus motif was quantified by fluorescence polarization using purified GST fusion protein (Patel, et al. (2016) Methods Enzymol., 573:387-401). […] Next, the crystal structure of the ZF domain in complex with the same 17-bp oligo (5′-3′: […] (SEQ ID NO: 19); 3′-5′: […] (SEQ ID NO: 20)) containing the consensus motif was determined. The structure of the protein-DNA complex was solved by the single-wavelength anomalous diffraction (SAD) method (Hendrickson, et al. (1990) EMBO J., 9:1665-1672) at 2.75 Å resolution. As in conventional C2H2 ZF proteins (Wolfe, et al. (2000) Annu. Rev. Biophys. Biomol. Struct., 29:183-212), each of five fingers of ZNF410 comprises two strands and a helix, with two histidine residues in the helix together with one cysteine in each strand coordinating a zinc ion, forming a characteristic tetrahedral C2-Zn—H2 structural unit that confers rigidity to the fingers. When bound to DNA, ZF1-5 occupies the DNA major groove, with their α-helices toward DNA and the strands and the C2-Zn—H2 units facing outside (FIGS. 6B and C). […]

[3] = molecular target: T3, ZNF410 ZF1-5 (GST removed) (Homo sapiens, UniProt Q86VK4 SEQ:217-366); assay: structure; crystal structure 2.75 A, PDB 6WMI; conditions: tags: none (GST cleaved with PreScission protease); label: FAM 5' (top strand) in FP
T3 sequence: T2 sequence

B1: ZNF410 FL: full-length tagged human ZNF410 (478 amino acids) overexpressed as control (protein)
chain: T1 sequence (Q86VK4 1-478)
modifications: left off: small tags and cut ends
notes: full-length tagged human ZNF410 (478 amino acids) overexpressed as control
With B1 the “DNA binding in EMSA” value [1] was “comparable binding to each of the four DNA probes”, the “effect on CHD4 expression” value (endogenous ZNF410; overexpression in HUDEP-2 cells) was “increased” and the “effect on γ-globin mRNA levels” value (endogenous ZNF410; overexpression in differentiated HUDEP-2 cells) was “slight decrease”.

B2: negative control oligo (dsDNA)
DNA 1: TCCACTGCCAGGACCTTT
DNA 2: AAAAGGTCCTGGCAGTGG
B2: no binding [2].

B3: ZNF410 consensus oligo 17 bp (dsDNA)
DNA 1: CACATCCCATAATAATG
DNA 2: CATTATTATGGGATGTG
B3: binds [3].
